Patent publication US20220348651A1 (Novartis, published 2022)
Numbering of substitutions follows the chain as printed.

T1: human ENTPD2 expressed on cells (human, UniProt Q9Y5L3 1-495)
T1 construct: full-length human ENTPD2 on engineered cells; also called NIH3T3 humanENTPD2; NIH/3T3-hENTPD2
T1 sequence: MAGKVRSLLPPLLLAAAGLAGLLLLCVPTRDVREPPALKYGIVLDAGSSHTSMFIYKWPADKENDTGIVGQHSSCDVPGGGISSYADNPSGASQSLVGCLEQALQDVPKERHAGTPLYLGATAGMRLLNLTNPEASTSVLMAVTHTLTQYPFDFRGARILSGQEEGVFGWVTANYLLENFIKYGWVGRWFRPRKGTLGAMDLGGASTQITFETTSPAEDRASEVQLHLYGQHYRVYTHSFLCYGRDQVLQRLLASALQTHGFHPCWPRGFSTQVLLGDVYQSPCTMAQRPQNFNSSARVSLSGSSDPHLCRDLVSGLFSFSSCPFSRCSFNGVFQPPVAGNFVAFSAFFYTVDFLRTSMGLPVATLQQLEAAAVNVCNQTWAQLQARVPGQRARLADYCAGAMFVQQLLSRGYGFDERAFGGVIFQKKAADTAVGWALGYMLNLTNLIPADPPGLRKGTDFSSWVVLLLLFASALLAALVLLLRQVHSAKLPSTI

T2: recombinant monomeric mouse ENTPD2 extracellular domain (residues 29-462) with His6 tag (mouse, UniProt O55026 29-462)
T2 sequence: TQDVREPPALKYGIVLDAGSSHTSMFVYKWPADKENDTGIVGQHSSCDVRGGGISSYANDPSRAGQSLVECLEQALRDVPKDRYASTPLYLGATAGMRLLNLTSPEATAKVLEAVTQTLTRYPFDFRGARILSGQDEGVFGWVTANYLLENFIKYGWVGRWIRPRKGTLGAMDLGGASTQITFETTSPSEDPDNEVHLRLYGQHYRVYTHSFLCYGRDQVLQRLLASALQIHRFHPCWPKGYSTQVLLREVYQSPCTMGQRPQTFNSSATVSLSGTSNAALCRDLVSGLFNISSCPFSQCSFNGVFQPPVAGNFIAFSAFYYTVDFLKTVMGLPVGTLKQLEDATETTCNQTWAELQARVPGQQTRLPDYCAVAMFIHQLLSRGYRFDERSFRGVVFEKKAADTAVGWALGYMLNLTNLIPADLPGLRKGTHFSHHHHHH

T3: cyno ENTPD2 expressed on NIH/3T3 cells (cynomolgus macaque, UniProt Q9Y5L3 1-495 (human entry))
T3 construct: also called NIH3T3 cynoENTPD2; Cyno ENTPD2 NIH/3T3
T3 chain: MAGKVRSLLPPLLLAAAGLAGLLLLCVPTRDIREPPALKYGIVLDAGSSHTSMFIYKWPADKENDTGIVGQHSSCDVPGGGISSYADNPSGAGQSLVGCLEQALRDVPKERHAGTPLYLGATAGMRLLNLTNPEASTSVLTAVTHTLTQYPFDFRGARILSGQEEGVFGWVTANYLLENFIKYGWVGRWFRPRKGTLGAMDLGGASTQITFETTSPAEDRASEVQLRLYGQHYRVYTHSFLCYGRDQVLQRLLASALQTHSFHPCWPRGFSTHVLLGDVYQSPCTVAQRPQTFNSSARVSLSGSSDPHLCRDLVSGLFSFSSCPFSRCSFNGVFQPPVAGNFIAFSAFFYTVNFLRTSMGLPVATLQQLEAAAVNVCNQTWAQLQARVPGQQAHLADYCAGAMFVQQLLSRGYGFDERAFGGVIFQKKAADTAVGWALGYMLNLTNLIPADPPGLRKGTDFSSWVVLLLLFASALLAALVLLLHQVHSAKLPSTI

T4: recombinant cyno ENTPD2 extracellular domain (residues 29-462) with C-terminal Avi-His6 tag (cynomolgus macaque, UniProt Q9Y5L3 29-462 (human entry))
T4 construct: also called cynomologus (cyno) ENTPD2 ECD
T4 chain (part 1 of 2): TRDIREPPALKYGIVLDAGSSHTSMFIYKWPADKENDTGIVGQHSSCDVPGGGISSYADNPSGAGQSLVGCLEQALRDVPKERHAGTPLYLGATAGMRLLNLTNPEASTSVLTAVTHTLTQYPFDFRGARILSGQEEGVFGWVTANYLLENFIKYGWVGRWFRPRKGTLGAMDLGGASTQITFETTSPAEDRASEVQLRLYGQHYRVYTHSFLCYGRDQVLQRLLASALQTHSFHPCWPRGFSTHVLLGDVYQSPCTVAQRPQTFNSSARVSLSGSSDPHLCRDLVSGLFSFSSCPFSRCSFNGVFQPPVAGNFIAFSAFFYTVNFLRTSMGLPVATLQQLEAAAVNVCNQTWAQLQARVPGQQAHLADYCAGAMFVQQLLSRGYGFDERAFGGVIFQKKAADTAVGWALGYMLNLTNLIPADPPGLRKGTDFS
T4 chain (part 2 of 2): HHHHHH

B1: ANTI-HUMAN ENTPD2 MAB1 (antibody, human IgG1, kappa)
heavy: not shown
light: DIQLTQSPSSLSASVGDRVTITCSASSSVSYIHWFQQKPGKAPKLLIYSTSNLASGVPSRFSGSGSGTFFTLTISSLQPEDFATYFCHQWSSYPWTFGQGTKVEIKRTVAAPSVFIFPPSDEQLKSGTASVVCLLNNFYPREAKVQWKVDNALQSGNSQESVTEQDSKDSTYSLSSTLTLSKADYEKHKVYACEVTHQGLSSPVTKSFNRGEC
notes: humanized from mAb17; human IgG1, kappa; also called anti-ENTPD2 mAb1
B2: ANTI-HUMAN ENTPD2 MAB4 (antibody, human IgG1, kappa, V domains shown)
VH: QIQLQESGPGLVKPSQTLSLTCTVSGYSITSGYYWNWIRQHPGKGLEWIGYISYDADNNYNPSLKNRVTISRDTSKNQFSLKLSSVTAADTAVYYCAGGYYRYGLGSYRGSYYYVMDYWGQGTTVTVSS
VL: ETVLTQSPATLSVSPGERATISCKASQSVDYEGHSYMNWYQQKPGQAPRLLIYAASNLESGIPARFSGSGSGTDFTLTISSVEPEDAATYYCQQSNEDPPTFGGGTKLEIKR
notes: humanized and optimized from mAb16; human IgG1, kappa; also called Anti-ENTPD2 mAb4
B3: ANTI-HUMAN ENTPD2 MAB6 (antibody, human IgG1, kappa, V domains shown)
VH: B2 VH with I2V, I49M, V68I, R109S
VL: DTQMTQSPSSLSVSVGDRATITCKASQSVDYEGHSYMNWYQQKPGKAPKLLIYAASNLESGVPSRFSGSGSGTDFTLTISSVQPEDFATYYCQQSNEDPPTFGGGTKLEIKR
notes: humanized and optimized from mAb16; human IgG1, kappa; also called Anti-ENTPD2 mAb6
B4: ANTI-HUMAN ENTPD2 MAB5 (antibody, human IgG1, kappa, V domains shown)
VH: B2 VH
VL: B2 VL with E32D, H34N
notes: humanized and optimized from mAb16; human IgG1, kappa; also called Anti-ENTPD2 mAb5
B5: ANTI-HUMAN ENTPD2 MAB8 (antibody, human IgG1, lambda, V domains shown)
VH: QVQLQQSGPGLVKPSQTLSLTCAISGDSVSSSSAAWNWIRQSPSRGLEWLGRIYYRSKWYNDYAVSVKSRITINPDTSKNQFSLQLNSVTPEDTAVYYCARGSYVTSSYEGFDYWGQGTLVTVSS
VL: SYELTQPLSVSVALGQTARITCSGDNLPEKYAYWYQQKPGQAPVLVIYDDNKRPSGIPERFSGSNSGNTATLTISRAQAGDEADYYCQSYGKWGWTWVFGGGTKLTVLG
notes: also called Anti-ENTPD2 mAb8
B6: ANTI-HUMAN ENTPD2 MAB2 (antibody, human IgG1, kappa)
heavy: not shown
light: EIVLTQSPATLSASPGERITLSCSASSSVSYIHWYQQKPGQAPRLLIYSTSNLASGIPARFSGSGSGTFYTLTISSVEPEDAAVYYCHQWSSYPWTFGGGTKLEIKRTVAAPSVFIFPPSDEQLKSGTASVVCLLNNFYPREAKVQWKVDNALQSGNSQESVTEQDSKDSTYSLSSTLTLSKADYEKHKVYACEVTHQGLSSPVTKSFNRGEC
notes: humanized from mAb17; human IgG1, kappa; also called Anti-ENTPD2 mAb2
B7: ANTI-HUMAN ENTPD2 MAB7 (antibody, human IgG1, kappa)
heavy: not shown
light: B6 light with R18E
notes: humanized from mAb17; human IgG1, kappa; also called Anti-ENTPD2 mAb7
B8: ANTI-HUMAN ENTPD2 MAB3 (antibody, human IgG1, kappa, V domains shown)
VH: QVQLVQSGAEVVKPGASVKISCKASGYTFTDYNMDWVKQAPGQRLEWIGDINPKYDISTYNQQFKGKATITVDTSASTAYMELSSLRSEDTAVYYCARRGFFLYYGINYYYFDVWGQGTLVTVSS
VL: EIVLTQSPATLSASPGERITLSCSASSSVSYIHWYQQKPGQAPRLLIYSTSNLASGIPARFSGSGSGTFYTLTISSVEPEDAAVYYCHQWSSYPWTFGGGTKLEIKR
notes: humanized from mAb17; human IgG1, kappa; also called Anti-ENTPD2 mAb3

Target: T1, human ENTPD2 expressed on cells
Assay: flow cytometry, RKO cells (endogenous ENTPD2)
Method: FACS screening: Specific binding of candidate antibodies to endogenously expressed ENTPD2 was assessed by flow cytometry. […] Geometric mean fluorescence intensity was calculated on live single cells using FlowJo software.

EC50 [nM] | Binder
0.9 | B1
0.5 | B2
0.4 | B3
0.4 | B4
0.3 | B5
1.3 | B6
0.4 | B7
2.1 | B8

Target: T2, recombinant monomeric mouse ENTPD2 …
Assay: SPR Biacore

binding result | Binder
no binding | B1
no binding | B2
no binding | B3
no binding | B4
binds | B5
no binding | B6
no binding | B7
no binding | B8

Target: T1, human ENTPD2 expressed on cells
Assay: flow cytometry, NIH3T3 human ENTPD2 cells

EC50 [nM] | Binder
1.5 | B1
0.9 | B2
0.9 | B3
0.9 | B4
0.6 | B5
2.1 | B6
0.5 | B7
2.8 | B8

Target: T3, cyno ENTPD2 expressed on NIH/3T3 cells
Assay: flow cytometry, NIH3T3 cyno ENTPD2 cells

EC50 [nM] | Binder
3.3 | B1
6.1 | B2
7 | B3
5.2 | B4
2.1 | B5
4.2 | B6
0.8 | B7
5.4 | B8

Target: T4, recombinant cyno ENTPD2 extracellular …
Assay: SPR Biacore, mAb captured, ECD analyte, 25C
Method: (§1) Biacore Screening: Affinity was measured by determining the kinetic rate constants using surface plasmon resonance (SPR) on a Biacore T200 or T100 with the T200 sensitivity upgrade instrument (Biacore, GE Healthcare). Antibodies were captured on CM5 sensor chips (Biacore, GE Healthcare) prepared with a mouse anti-human IgG Fc antibody (ThermoFisher catalogue #05-4200) amine coupled to the surface. […] ENTPD2 analytes were allowed to associate for 180 s and dissociate for up to 1800 s depending on the off-rate of the antibody at a flow rate of 30 μL/min. The running buffer was PBS pH 7.2 (prepared from a Corning 10X stock, cat#46-013-CM)+0.05% Tween 20. […] The raw data were analyzed using Biacore T200 Evaluation Software version 1.0 and fit to a 1:1 binding model, with all parameters set to fit globally except for RI, which was set to fit locally.

Kd [nM] | koff [s⁻¹] | kon [M⁻¹ s⁻¹] | Binder
3.4 | 0.0012 | 360000 | B1
42.1 | 0.0057 | 140000 | B2
35.6 | 0.01 | 290000 | B3
10.7 | 0.003 | 290000 | B4
81.1 | 0.024 | 300000 | B5
2.8 | 0.0012 | 430000 | B6
1.1 | 0.0012 | 1.2e+06 | B7
2.2 | 0.00098 | 450000 | B8

Target: T5, recombinant human ENTPD2 extracellular domain (residues 29-462) with C-terminal Avi-His6 tag (human, UniProt Q9Y5L3 29-462, biotinylated on the AviTag in the epitope binning assay)
T5 construct: also called human ENTPD2 ECD; Human ENTPD2-Avi-His6 protein
Assay: SPR Biacore, mAb captured, ECD analyte, 25C
Method: as §1

Kd [nM] | koff [s⁻¹] | kon [M⁻¹ s⁻¹] | Binder
1.7 | 0.00019 | 110000 | B1
0.7 | 0.00022 | 300000 | B2
0.7 | 0.00026 | 350000 | B3
0.6 | 0.00016 | 270000 | B4
3.3 | 0.00094 | 290000 | B5
1.7 | 0.00018 | 110000 | B6
0.9 | 0.00019 | 210000 | B7
1.3 | 0.00016 | 130000 | B8
